Each block holds one molecule with its values, some of them ahead of it.
B2: uL16 (RPL10), in the 60S subunit (natural protein, S. cerevisiae (endogenous in S288C), UniProt P41805 1-221, looked up)
chain: MARRPARCYRYQKNKPYPKSRYNRAVPDSKIRIYDLGKKKATVDEFPLCVHLVSNELEQLSSEALEAARICANKYMTTVSGRDAFHLRVRVHPFHVLRINKMLSCAGADRLQQGMRGAWGKPHGLAARVDIGQIIFSVRTKDSNKDVVVEGLRRARYKFPGQQKIILSKKWGFTNLDRPEYLKKREAGEVKDDGAFVKFLSKKGSLENNIREFPEYFAAQA
notes: ribosomal protein uL16 (RPL10) of S. cerevisiae; met Sdo1p as a subunit of the purified 60S particle, not as an isolated protein; source: endogenous, part of the 60S subunit purified from S. cerevisiae S288C

Experiments:
[1] = biological target: T1, Sdo1p, full-length (1-250) (S. cerevisiae, UniProt Q07953 1-250); experiment: BLI; Octet RED96; Sdo1p variants (2 μg/mL) immobilised on Anti-Penta-HIS biosensors; 60S subunit 1.75-48 nmol/L in 25 mmol/L Hepes-KOH pH 7.5, 100 mmol/L KCl, 2.5 mmol/L MgCl2; association and dissociation 240 s each
T1 construct: Sdo1p, the SBDS homologue of S. cerevisiae, full-length construct, residues 1-250; cloned into pET21b; also called Sdo1p-FL; FL; source: E. coli BL21 (DE3), purified (Ni-NTA, gel filtration); not shown: His6, C-terminal, kept
T1 sequence (looked up): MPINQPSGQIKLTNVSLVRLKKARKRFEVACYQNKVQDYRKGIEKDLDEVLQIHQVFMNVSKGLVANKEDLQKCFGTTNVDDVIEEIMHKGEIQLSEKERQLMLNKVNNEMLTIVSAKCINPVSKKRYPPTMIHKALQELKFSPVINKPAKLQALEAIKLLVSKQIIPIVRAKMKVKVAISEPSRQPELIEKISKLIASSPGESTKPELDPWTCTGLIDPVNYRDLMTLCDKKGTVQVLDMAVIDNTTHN

[2] = biological target: Sdo1p domain I-II (1-169) (S. cerevisiae) (UniProt Q07953); experiment: as above
[3] = biological target: The truncated domain I, II and II-III; experiment: as above
[4] = biological target: B2; experiment: cross-linking; CX-MS: 50 pmol 60S with full-length or truncated Sdo1p at 1:20, 25 mmol/L Hepes-KOH pH 7.5, 100 mmol/L KCl, 2.5 mmol/L MgCl2; DSS or BS3, room temperature 1 h; trypsin, LC-MS/MS, pLink FDR <5%; conditions: both partners purified
[5] = biological target: T1, Sdo1p, full-length (1-250); experiment: as above; conditions: both partners purified
[6] = biological target: mature 60S ribosomal subunit of S. cerevisiae (S. cerevisiae (endogenous in S288C)) (UniProt P41805); experiment: cryo-EM structure; 60S subunit (100 nmol/L) with 20-fold (dimers, 14 Å map) or 10-fold (monomers, 9 Å map) excess of full-length Sdo1p, 30°C 15 min, without crosslinking

Kd [1]: 18 nM
Kd [2]: 15 nM
Kd [3]: 25 to 40 nM
Molecule: mature 60S ribosomal subunit of S. cerevisiae (from UniProt P41805 1-221) (complex)

binding result [4]: binds
B1: Sdo1p domain I-II (1-169) (domain or fragment, S. cerevisiae, UniProt Q07953 1-169, looked up)
chain: MPINQPSGQIKLTNVSLVRLKKARKRFEVACYQNKVQDYRKGIEKDLDEVLQIHQVFMNVSKGLVANKEDLQKCFGTTNVDDVIEEIMHKGEIQLSEKERQLMLNKVNNEMLTIVSAKCINPVSKKRYPPTMIHKALQELKFSPVINKPAKLQALEAIKLLVSKQIIPI
notes: Sdo1p of S. cerevisiae, domains I-II, residues 1-169; cloned into pET21b; also called domains I-II; Sdo1p-I-II; source: E. coli BL21 (DE3), purified (Ni-NTA, gel filtration); not shown: His6, C-terminal, kept

Molecule: B2
binding result [5]: binds

stoichiometry N [6]: 1
B3: Sdo1p, full-length (1-250) (natural protein)
chain: MPINQPSGQIKLTNVSLVRLKKARKRFEVACYQNKVQDYRKGIEKDLDEVLQIHQVFMNVSKGLVANKEDLQKCFGTTNVDDVIEEIMHKGEIQLSEKERQLMLNKVNNEMLTIVSAKCINPVSKKRYPPTMIHKALQELKFSPVINKPAKLQALEAIKLLVSKQIIPIVRAKMKVKVAISEPSRQPELIEKISKLIASSPGESTKPELDPWTCTGLIDPVNYRDLMTLCDKKGTVQVLDMAVIDNTTHN

— PMC4791427, “Structural dynamics of the yeast Shwachman-Diamond syndrome protein (Sdo1) on the ribosome and its implication in the 60S subunit maturation” (Protein & Cell, 2016)
